The values below come from patent US20240400703A1 (Genmab, published 2024).

T1: recombinant cynomolgus monkey OX40 (Acro Biosystems, cat. no. OX0-C5220) (cynomolgus monkey (Macaca fascicularis), UniProt P43489 29-214 (human entry))
T1 construct: bought protein; also called Cyno OX40
T1 chain: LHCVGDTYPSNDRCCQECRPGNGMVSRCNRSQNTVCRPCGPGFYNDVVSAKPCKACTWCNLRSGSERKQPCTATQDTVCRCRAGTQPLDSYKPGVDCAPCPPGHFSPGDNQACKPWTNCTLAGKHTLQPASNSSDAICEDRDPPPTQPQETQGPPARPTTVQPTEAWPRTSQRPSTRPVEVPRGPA

T2: recombinant human OX40 fused to a His-tag (Acro Biosystems, cat. no. OX0-H5224) (human, UniProt P43489 29-214)
T2 construct: bought protein; also called sOX40; soluble OX40; not shown: His-tag
T2 sequence: T1 chain with Q16H, N29S, A50S, A55P, P70L, P145A, T159I, R173G, R183G, P185R

B1: IgG1-CD134-003-HC6LC2-P329R-E345R (antibody)
heavy: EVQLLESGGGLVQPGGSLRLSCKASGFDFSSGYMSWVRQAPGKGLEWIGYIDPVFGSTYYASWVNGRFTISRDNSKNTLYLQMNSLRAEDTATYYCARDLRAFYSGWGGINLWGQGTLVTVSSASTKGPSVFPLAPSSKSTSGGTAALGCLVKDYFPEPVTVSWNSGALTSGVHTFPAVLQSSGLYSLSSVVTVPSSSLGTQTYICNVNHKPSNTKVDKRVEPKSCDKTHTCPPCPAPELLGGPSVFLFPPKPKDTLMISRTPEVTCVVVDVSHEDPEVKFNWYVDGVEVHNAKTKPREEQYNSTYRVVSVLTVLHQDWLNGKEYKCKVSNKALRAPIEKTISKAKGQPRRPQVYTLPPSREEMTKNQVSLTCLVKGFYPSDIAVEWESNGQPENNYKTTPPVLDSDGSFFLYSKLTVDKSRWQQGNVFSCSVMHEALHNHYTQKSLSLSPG
light: AAVLTQSPSSLSASVGDRVTITCQSSQIVVNNNFLSWYQQKPGKAPKLLIYDASNLASGVPDRFSGSGSGTDFTFTISSLQPEDIATYYCLGGYDDDAENAFGGGTKVEIKRTVAAPSVFIFPPSDEQLKSGTASVVCLLNNFYPREAKVQWKVDNALQSGNSQESVTEQDSKDSTYSLSSTLTLSKADYEKHKVYACEVTHQGLSSPVTKSFNRGEC
notes: humanized; human IgG1 with P329R and E345R (Eu numbering), kappa; also called IgG1-CD134-003-HC6LC2-RR
B2: IgG1-CD134-003 (antibody)
heavy: not shown
light: AAVLTQTPSPVSAAVGGTVTIKCQSSQIVVNNNFLSWYQQKPGQPPKLLIYDASNLASGVPDRFSGSGSGTQFTLTISGVQSDDAATYYCLGGYDDDAENAFGGGTEVVVQRTVAAPSVFIFPPSDEQLKSGTASVVCLLNNFYPREAKVQWKVDNALQSGNSQESVTEQDSKDSTYSLSSTLTLSKADYEKHKVYACEVTHQGLSSPVTKSFNRGEC
notes: rabbit-human chimeric IgG1, wild-type Fc; also called parental chimeric antibody
B3: IgG1-CD134-007 (antibody)
heavy: not shown
light: AQVLTQTPSPVSAAVGGTVTISCQSSESVWNNNWLAWYQQKPGQPPNLLIYEASTLASGVSSRFKGSGSGTQFTLTVSEVQSDDAATYYCQGGYYDSSPIWTFGGGTEVVVKRTVAAPSVFIFPPSDEQLKSGTASVVCLLNNFYPREAKVQWKVDNALQSGNSQESVTEQDSKDSTYSLSSTLTLSKADYEKHKVYACEVTHQGLSSPVTKSFNRGEC
notes: rabbit-human chimeric IgG1
B4: IgG1-CD134-012 (antibody)
heavy: not shown
light: DIVMTQTPASVEAAVGGTVTIKCQASENIYSSLAWYQQKPGQPPKLLIYRTSTLASGVPSRFKGSGSGTQFTLTISDLESDDAATYYCQSYYHNSGGGYDYGFGGGTEVVAKRTVAAPSVFIFPPSDEQLKSGTASVVCLLNNFYPREAKVQWKVDNALQSGNSQESVTEQDSKDSTYSLSSTLTLSKADYEKHKVYACEVTHQGLSSPVTKSFNRGEC
notes: rabbit-human chimeric IgG1

Positions count from the first letter of the chain named. Numbers in names are those of the source.

In general, Kd refers to the concentration at which binding is half-saturated. By koff is commonly meant the first-order rate constant of dissociation. As usually defined, the kon is a measure of how fast the partners come together.

The target of the first assay is T1, recombinant cynomolgus monkey OX40 …. The experiment in a line: BLI, Ab on AHC sensor, OX40 analyte. As for the experimental part:
Experiments were carried out while shaking at 1,000 RPM at 30° C. […] Next, AHC sensors were loaded with antibody (1 μg/mL in Sample Diluent) for 600 s. After a baseline measurement in sample diluent (100 s), the association (200 s) and dissociation (1,000 s) of human OX40 (Acro Biosystems, cat. no. OX0-H5224), and cynomolgus monkey OX40 (Acro Biosystems, cat. no. OX0-C5220) was determined using a concentration range of 0.78 to 800 nM with 2-fold dilution steps.
The theoretical molecular masses of the antigens based on the amino acid sequences were used for calculations. For each antibody, a reference sensor was used which was incubated with Sample Diluent instead of antigen. AHC sensors were regenerated by exposure to 10 mM glycine buffer pH 1.7 for 5 s, followed by neutralization in Sample Diluent for 5 s; both steps were repeated twice. Subsequently sensors were loaded again with antibody for the next cycle of kinetic measurements.
Data were acquired using Data Acquisition Software v12.0 (Sartorius) and analyzed with Data Analysis Software v12.0 (Sartorius). Data traces were corrected per antibody by subtraction of the reference sensor. The Y-axis was aligned to the last 10 s of the baseline and Interstep Correction alignment to dissociation as well as Savitzky-Golay filtering were applied. Data traces with a response <0.05 nm were excluded from analysis. […] The data was fitted with the 1:1 model using a window of interest for the association of 200 s and dissociation times set at 50 s, 200 s and 1,000 s. The dissociation time was chosen based upon R² value, visual inspection of the curve and at least 5% signal decay during the dissociation step.
A general note: Biolayer interferometry detects binding as a change in optical thickness at a sensor tip.
Consider B1, for which the Kd turned out to be 27 nM, the off-rate (koff) was 0.0029 s⁻¹ and the on-rate (kon) was 110000 M⁻¹ s⁻¹.
As to B2, the Kd was found to be 3.5 nM, the dissociation rate constant (koff) turned out to be 0.00096 s⁻¹ and the kon is 280000 M⁻¹ s⁻¹.
For B3 the same measures were 7.1 nM, 0.0018 s⁻¹ and 260000 M⁻¹ s⁻¹.

The target of another assay is T2, recombinant human OX40 fused to a …. The experiment in a line: BLI cross-block; first Ab (competitor): IgG1-CD134-003. As for the experimental part: (§1) Experiments were carried out while shaking at 1,000 RPM and at 30° C.
(§2) Amine Reactive 2nd Generation (AR2G) biosensors (Sartorius, cat. no. 18-5092) were activated for 300 s with a solution of 20 mM EDC (N-(3-Dimethylaminopropyl)-N-ethylcarbodiimide hydrochloride; Sartorius, cat. no. 18-1033) and 10 mM s-NHS (N-hydroxysulfosuccinimide sodium salt; Sartorius, cat. no. 18-1067). […] After a baseline measurement in Sample Diluent (Sartorius, cat. no. 18-1104) for 50 s, the AR2G biosensors containing immobilized antibody were loaded for 300 s with human OX40 fused to a His-tag (100 nM diluted in Sample Diluent; Acro Biosystems, cat. no. OX0-H5224). The association (300 s) of a second antibody (10 μg/mL in Sample Diluent) was determined. Sensors were regenerated by three cycles of exposure to 10 mM Glycine (Sigma-Aldrich, cat. no. 15527) buffer pH 2.5 for 5 s followed by neutralization in Sample Diluent for 5 s.
(§3) Data were acquired using Data Acquisition Software v12.0 (Sartorius) and analyzed with Data Analysis HT Software v12.0 (Sartorius). Data traces were corrected by subtraction of a reference curve (Sample Diluent instead of second antibody) in order to correct for the dissociation of antigen from the immobilized first antibody. The Y-axis was aligned to the start of the association step and Savitzky-Golay filtering was applied. The corrected association responses of the second antibodies were plotted in a matrix format (Table 5). Responses ≥0.1 nm were considered non-blocking antibody pairs, while responses <0.1 were considered blocking antibody pairs.
As to B4, the association response worked out at 0 nm.
The same measure, in the same setting: in the case of B1 it was 0.04 nm.
On the same count and under the same terms, the value for B2 was 0.02 nm; that for B3 was -0.02 nm.

The next assay shares this target. The experiment in a line: BLI cross-block; first Ab (competitor): IgG1-CD134-11D4. On the procedure: as §2, §3
Turning to B4, the association response was 0 nm.
Turning to B1, the association response came to 0 nm.
The same measure, in the same setting: in the case of B2 it was 0.01 nm.
On the same count and under the same terms, in the case of B3 it was 0.15 nm.

A further assay shares this target. The experiment in a line: BLI cross-block; first Ab (competitor): IgG1-CD134-h3C8. As for the experimental part:
as §2, §3
For B4, the association response is 0.35 nm.
The same measure, in the same setting: in the case of B1 it was 0.5 nm; in that of B2, 0.46 nm; in that of B3, -0.02 nm.

The next assay has the same target. Nature of the assay: BLI cross-block; first Ab (competitor): IgG1-CD134-A4453. On the procedure: as §2, §3
In the case of B4, the association response was 0.22 nm.
On the same count and under the same terms, the value for B1 was 0.31 nm; that for B2 was 0.26 nm.
Regarding B3, the association response was determined as 0.28 nm.

For a further assay the target is unchanged. Nature of the assay: BLI cross-block; first Ab (competitor): IgG1-CD134-IBI101. On the procedure:
as §2, §3
With B4, the association response was determined as 0.28 nm.
The same measure, in the same setting: in the case of B1 it was 0.34 nm; in that of B2, 0.23 nm.
For B3, the association response is 0 nm.

The target is the same in a further assay. Nature of the assay: BLI cross-block; first Ab (competitor): IgG1-CD134-RG7888. On the procedure:
as §2, §3
Regarding B4, the association response amounted to 0.42 nm.
For the molecule B1, the association response was 0.65 nm.
In the case of B2, the association response was 0.66 nm.
Same read-out and setting: the value for B3 was 0.64 nm.

The target is the same in another assay. Nature of the assay: BLI cross-block; first Ab (competitor): IgG1-CD134-49B4-RRE. On the procedure:
as §1, §2, §3
Consider B4, for which the association response was 0.1 nm.
Take B1: the association response is 0.25 nm.
Same read-out and setting: the value for B2 was 0.2 nm.
Take B3: the association response came to 0 nm.

The target is the same in another assay. Nature of the assay: BLI cross-block; first Ab (competitor): IgG1-CD134-MEDI0562. On the procedure: as §2, §3
As to B4, the association response worked out at 0.23 nm.
For the molecule B1, the association response was 0.34 nm.
The same measure, in the same setting: the value for B2 was 0.3 nm; that for B3 was 0.32 nm.

The target is the same in the next assay. Nature of the assay: BLI cross-block; first Ab (competitor): IgG1-CD134-INCAGN1949. As for the experimental part: as §1, §2, §3
With B4, the association response came out at 0.07 nm.
Still for that read-out and setting: the value for B1 was 0.19 nm.
Still for that read-out and setting: in the case of B2 it was 0.15 nm; in that of B3, 0.06 nm.
